Results reported in US20140087995A1 (published 2014).
Numbered stars: 1 amine (or outer) side, 2 acyl side, 3 side chain; on linkers, the order of the positions; unused ones are H or OH. Bridge positions count the residues as written; N and C are the ends. Side chains are listed from the residue outwards. Ends that are not written are not given here. * marks the point of attachment. C20 diacid = O=C(O)CCCCCCCCCCCCCCCCCCC(=O)*; γGlu = O=C(O)[C@H](CCC(=O)[*:2])N[*:1]; AEEA = NCCOCCOCC(=O)O

T1: human calcitonin receptor (human, UniProt P30988 25-474)
T1 construct: whole, on cells; Assayed as cell membranes of BHK tk'ts 13 cells stably transfected with the human calcitonin receptor (Assay VII); also called hCTR; hCT
T1 sequence (looked up): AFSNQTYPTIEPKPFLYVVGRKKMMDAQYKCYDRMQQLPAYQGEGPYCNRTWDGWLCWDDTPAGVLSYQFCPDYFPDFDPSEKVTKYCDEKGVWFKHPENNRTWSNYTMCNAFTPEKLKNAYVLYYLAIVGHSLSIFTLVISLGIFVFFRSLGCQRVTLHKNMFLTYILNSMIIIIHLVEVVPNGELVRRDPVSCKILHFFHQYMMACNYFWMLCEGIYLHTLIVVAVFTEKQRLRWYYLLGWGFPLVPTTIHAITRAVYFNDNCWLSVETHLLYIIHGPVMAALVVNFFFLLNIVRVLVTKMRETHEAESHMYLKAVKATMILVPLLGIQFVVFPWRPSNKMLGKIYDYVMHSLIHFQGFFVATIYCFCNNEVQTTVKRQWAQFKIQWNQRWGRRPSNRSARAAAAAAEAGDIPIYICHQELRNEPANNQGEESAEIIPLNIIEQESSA


Columns and labels:
[1] = target: T1, human calcitonin receptor; test: IC50 at hCTR divided by IC50 at hAmylin-R (SPA competition assays V and VII)
How it was run: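 Competition binding by SPA uses membrane preparations (35 ng/μL final) in pH 7.4 Hepes buffer with 1 mM CaCl2 and 5 mM MgCl₂. Incubation lasts 120 min at 25° C, and IC₅₀ comes from one-site fitting.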

[2] = target: T1, human calcitonin receptor; test: SPA competition vs 125I-calcitonin, membranes of BHK cells with human calcitonin receptor (Assay VII)
How it was run: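 BHK hCTR membranes 35 ng/μL + SPA beads 0.05 mg/well; buffer 50 mM Hepes pH 7.4, 1 mM CaCl2, 5 mM MgCl₂, 0.1% OA, 0.02% Tween20. 120 min, 25° C., shaking. Scintillation count; IC50 by one-site binding competition.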

Row | Binder | Ratio hCT/hAmylin binding [1] | IC50 [2]
1 | K([AEEA-γGlu-C20 diacid])CNTATCATQRLATFLRHSSPNFGAIPSSTPVGSNTY-NH2 (disulfide 2-7; N-terminus assumed; SMILES CC[C@H](C)[C@H](NC(=O)[C@H](C)NC(=O)CNC(=O)[C@H](Cc1ccccc1)NC(=O)[C@H](CC(N)=O)NC(=O)[C@@H]1CCCN1C(=O)[C@H](CO)NC(=O)[C@H](CO)NC(=O)[C@H](Cc1c[nH]cn1)NC(=O)[C@H](CCCNC(=N)N)NC(=O)[C@H](CC(C)C)NC(=O)[C@H](Cc1ccccc1)NC(=O)[C@@H](NC(=O)[C@H](C)NC(=O)[C@H](CC(C)C)NC(=O)[C@H](CCCNC(=N)N)NC(=O)[C@H](CCC(N)=O)NC(=O)[C@@H](NC(=O)[C@H](C)NC(=O)[C@@H]1CSSC[C@H](NC(=O)[C@@H](N)CCCCNC(=O)COCCOCCNC(=O)CC[C@H](NC(=O)CCCCCCCCCCCCCCCCCCC(=O)O)C(=O)O)C(=O)N[C@@H](CC(N)=O)C(=O)N[C@@H]([C@@H](C)O)C(=O)N[C@@H](C)C(=O)N[C@@H]([C@@H](C)O)C(=O)N1)[C@@H](C)O)[C@@H](C)O)C(=O)N1CCC[C@H]1C(=O)N[C@@H](CO)C(=O)N[C@@H](CO)C(=O)N[C@H](C(=O)N1CCC[C@H]1C(=O)N[C@H](C(=O)NCC(=O)N[C@@H](CO)C(=O)N[C@@H](CC(N)=O)C(=O)N[C@H](C(=O)N[C@@H](Cc1ccc(O)cc1)C(N)=O)[C@@H](C)O)C(C)C)[C@@H](C)O, also called compound 75) | 91.4 | 60.9 nM
2 | K([γGlu-C20 diacid])CNTATCATQRLAAFLRHSSPNFGAIPSSTNVGHNTY-NH2 (disulfide 2-7; N-terminus assumed; SMILES CC[C@H](C)[C@H](NC(=O)[C@H](C)NC(=O)CNC(=O)[C@H](Cc1ccccc1)NC(=O)[C@H](CC(N)=O)NC(=O)[C@@H]1CCCN1C(=O)[C@H](CO)NC(=O)[C@H](CO)NC(=O)[C@H](Cc1c[nH]cn1)NC(=O)[C@H](CCCNC(=N)N)NC(=O)[C@H](CC(C)C)NC(=O)[C@H](Cc1ccccc1)NC(=O)[C@H](C)NC(=O)[C@H](C)NC(=O)[C@H](CC(C)C)NC(=O)[C@H](CCCNC(=N)N)NC(=O)[C@H](CCC(N)=O)NC(=O)[C@@H](NC(=O)[C@H](C)NC(=O)[C@@H]1CSSC[C@H](NC(=O)[C@@H](N)CCCCNC(=O)CC[C@H](NC(=O)CCCCCCCCCCCCCCCCCCC(=O)O)C(=O)O)C(=O)N[C@@H](CC(N)=O)C(=O)N[C@@H]([C@@H](C)O)C(=O)N[C@@H](C)C(=O)N[C@@H]([C@@H](C)O)C(=O)N1)[C@@H](C)O)C(=O)N1CCC[C@H]1C(=O)N[C@@H](CO)C(=O)N[C@@H](CO)C(=O)N[C@H](C(=O)N[C@@H](CC(N)=O)C(=O)N[C@H](C(=O)NCC(=O)N[C@@H](Cc1c[nH]cn1)C(=O)N[C@@H](CC(N)=O)C(=O)N[C@H](C(=O)N[C@@H](Cc1ccc(O)cc1)C(N)=O)[C@@H](C)O)C(C)C)[C@@H](C)O, also called compound 93) | 101 | 17.8 nM
3 | K([γGlu-C20 diacid])CNTATCATQRLARFLRHSSPNFGAIPSSTPVGSNTY-NH2 (disulfide 2-7; N-terminus assumed; SMILES CC[C@H](C)[C@H](NC(=O)[C@H](C)NC(=O)CNC(=O)[C@H](Cc1ccccc1)NC(=O)[C@H](CC(N)=O)NC(=O)[C@@H]1CCCN1C(=O)[C@H](CO)NC(=O)[C@H](CO)NC(=O)[C@H](Cc1c[nH]cn1)NC(=O)[C@H](CCCNC(=N)N)NC(=O)[C@H](CC(C)C)NC(=O)[C@H](Cc1ccccc1)NC(=O)[C@H](CCCNC(=N)N)NC(=O)[C@H](C)NC(=O)[C@H](CC(C)C)NC(=O)[C@H](CCCNC(=N)N)NC(=O)[C@H](CCC(N)=O)NC(=O)[C@@H](NC(=O)[C@H](C)NC(=O)[C@@H]1CSSC[C@H](NC(=O)[C@@H](N)CCCCNC(=O)CC[C@H](NC(=O)CCCCCCCCCCCCCCCCCCC(=O)O)C(=O)O)C(=O)N[C@@H](CC(N)=O)C(=O)N[C@@H]([C@@H](C)O)C(=O)N[C@@H](C)C(=O)N[C@@H]([C@@H](C)O)C(=O)N1)[C@@H](C)O)C(=O)N1CCC[C@H]1C(=O)N[C@@H](CO)C(=O)N[C@@H](CO)C(=O)N[C@H](C(=O)N1CCC[C@H]1C(=O)N[C@H](C(=O)NCC(=O)N[C@@H](CO)C(=O)N[C@@H](CC(N)=O)C(=O)N[C@H](C(=O)N[C@@H](Cc1ccc(O)cc1)C(N)=O)[C@@H](C)O)C(C)C)[C@@H](C)O, also called compound 63) | 157 | 130 nM
4 | K([γGlu-C20 diacid])CNTATCATQRLARFLRHSSPNFGAIPSSTNVGPNTY-NH2 (disulfide 2-7; N-terminus assumed; SMILES CC[C@H](C)[C@H](NC(=O)[C@H](C)NC(=O)CNC(=O)[C@H](Cc1ccccc1)NC(=O)[C@H](CC(N)=O)NC(=O)[C@@H]1CCCN1C(=O)[C@H](CO)NC(=O)[C@H](CO)NC(=O)[C@H](Cc1c[nH]cn1)NC(=O)[C@H](CCCNC(=N)N)NC(=O)[C@H](CC(C)C)NC(=O)[C@H](Cc1ccccc1)NC(=O)[C@H](CCCNC(=N)N)NC(=O)[C@H](C)NC(=O)[C@H](CC(C)C)NC(=O)[C@H](CCCNC(=N)N)NC(=O)[C@H](CCC(N)=O)NC(=O)[C@@H](NC(=O)[C@H](C)NC(=O)[C@@H]1CSSC[C@H](NC(=O)[C@@H](N)CCCCNC(=O)CC[C@H](NC(=O)CCCCCCCCCCCCCCCCCCC(=O)O)C(=O)O)C(=O)N[C@@H](CC(N)=O)C(=O)N[C@@H]([C@@H](C)O)C(=O)N[C@@H](C)C(=O)N[C@@H]([C@@H](C)O)C(=O)N1)[C@@H](C)O)C(=O)N1CCC[C@H]1C(=O)N[C@@H](CO)C(=O)N[C@@H](CO)C(=O)N[C@H](C(=O)N[C@@H](CC(N)=O)C(=O)N[C@H](C(=O)NCC(=O)N1CCC[C@H]1C(=O)N[C@@H](CC(N)=O)C(=O)N[C@H](C(=O)N[C@@H](Cc1ccc(O)cc1)C(N)=O)[C@@H](C)O)C(C)C)[C@@H](C)O, also called compound 65) | 82.4 | 53.5 nM

These reach a lower IC50 [2]. Values come first.

Row | Ratio hCT/hAmylin binding [1] | IC50 [2] | Binder
5 | 46.3 | 6.86 nM | K([γGlu-C20 diacid])CNTATCATQRLAAFLRHSSPNFGAIPSSTNVGPNTY-NH2 (disulfide 2-7; N-terminus assumed; SMILES CC[C@H](C)[C@H](NC(=O)[C@H](C)NC(=O)CNC(=O)[C@H](Cc1ccccc1)NC(=O)[C@H](CC(N)=O)NC(=O)[C@@H]1CCCN1C(=O)[C@H](CO)NC(=O)[C@H](CO)NC(=O)[C@H](Cc1c[nH]cn1)NC(=O)[C@H](CCCNC(=N)N)NC(=O)[C@H](CC(C)C)NC(=O)[C@H](Cc1ccccc1)NC(=O)[C@H](C)NC(=O)[C@H](C)NC(=O)[C@H](CC(C)C)NC(=O)[C@H](CCCNC(=N)N)NC(=O)[C@H](CCC(N)=O)NC(=O)[C@@H](NC(=O)[C@H](C)NC(=O)[C@@H]1CSSC[C@H](NC(=O)[C@@H](N)CCCCNC(=O)CC[C@H](NC(=O)CCCCCCCCCCCCCCCCCCC(=O)O)C(=O)O)C(=O)N[C@@H](CC(N)=O)C(=O)N[C@@H]([C@@H](C)O)C(=O)N[C@@H](C)C(=O)N[C@@H]([C@@H](C)O)C(=O)N1)[C@@H](C)O)C(=O)N1CCC[C@H]1C(=O)N[C@@H](CO)C(=O)N[C@@H](CO)C(=O)N[C@H](C(=O)N[C@@H](CC(N)=O)C(=O)N[C@H](C(=O)NCC(=O)N1CCC[C@H]1C(=O)N[C@@H](CC(N)=O)C(=O)N[C@H](C(=O)N[C@@H](Cc1ccc(O)cc1)C(N)=O)[C@@H](C)O)C(C)C)[C@@H](C)O, also called compound 94)
6 | 51.7 | 5.38 nM | K([AEEA-γGlu-C20 diacid])CNTATCATQRLASFLRHSSPNFGAIPSSTPVGSNTY-NH2 (disulfide 2-7; N-terminus assumed; SMILES CC[C@H](C)[C@H](NC(=O)[C@H](C)NC(=O)CNC(=O)[C@H](Cc1ccccc1)NC(=O)[C@H](CC(N)=O)NC(=O)[C@@H]1CCCN1C(=O)[C@H](CO)NC(=O)[C@H](CO)NC(=O)[C@H](Cc1c[nH]cn1)NC(=O)[C@H](CCCNC(=N)N)NC(=O)[C@H](CC(C)C)NC(=O)[C@H](Cc1ccccc1)NC(=O)[C@H](CO)NC(=O)[C@H](C)NC(=O)[C@H](CC(C)C)NC(=O)[C@H](CCCNC(=N)N)NC(=O)[C@H](CCC(N)=O)NC(=O)[C@@H](NC(=O)[C@H](C)NC(=O)[C@@H]1CSSC[C@H](NC(=O)[C@@H](N)CCCCNC(=O)COCCOCCNC(=O)CC[C@H](NC(=O)CCCCCCCCCCCCCCCCCCC(=O)O)C(=O)O)C(=O)N[C@@H](CC(N)=O)C(=O)N[C@@H]([C@@H](C)O)C(=O)N[C@@H](C)C(=O)N[C@@H]([C@@H](C)O)C(=O)N1)[C@@H](C)O)C(=O)N1CCC[C@H]1C(=O)N[C@@H](CO)C(=O)N[C@@H](CO)C(=O)N[C@H](C(=O)N1CCC[C@H]1C(=O)N[C@H](C(=O)NCC(=O)N[C@@H](CO)C(=O)N[C@@H](CC(N)=O)C(=O)N[C@H](C(=O)N[C@@H](Cc1ccc(O)cc1)C(N)=O)[C@@H](C)O)C(C)C)[C@@H](C)O, also called compound 73)
